Assay results published in patent US20210292392A1 (TSB THERAPEUTICS BEIJING, published 2021).
Numbering of substitutions follows the chain as printed. In names and notes the source's numbering stands.

B1: P5A-3A6 (antibody, human IgG1, lambda, V domains shown)
VH: EVQLVESGGGLVQPGRSLRLSCAASGFTFDDYAMHWVRQAPGKGLEWVSGISWNSGTIGYADSVKGRFIISRDNAKNSLYLQMNSLRAEDTALYYCAGGGTMVRGVIAGGGTHPVDDYYGMDVWGQGTTVTVSS
VL: QSALTQPASVSGSPGQSITISCTGTSSDVGGYNYVSWYQQHPGKAPKLMIYDVSNRPSGVSNRFSGSKSGNTASLTISGLQAEDEADYYCSSYTSSSTVVFGGGTKLTVLG
B2: P5A-1B6 (antibody, human IgG1, kappa, V domains shown)
VH: QVQLVESGGGVVQPGRSLRLSCAASGFTFSSYAMHWVRQAPGKGLEWVAVISYDGSNKYYADSVKGRFTISRDNSKNTLYLQMNSLRAEDTAVYYCARDGQAITMVQGVIGPPFDYWGQGTLVTVSS
VL: not shown
B3: P5A-1D10 (antibody, human IgG1, lambda, V domains shown)
VH: QVQLVESGGGLVKPGGSLRLSCAASQFTFSDYSMTWIRQAPGKGLEWVSYISQSGSTIYYADSVKGRFTISRDNAKNSLYLQMNSLRAEDTAVYYCARGVSPSYVWGSYRSLYHFDYWGQGTLVTVSS
VL: QSALTQPASVSGSPGQSITISCTGTSSDVGGYNYVSWYQQHPGKAPKLMIYDVSNRPSGVSNRFSASKSGNTASLTISGLQAEDEADYYCSSFTSSTTVVVFGGGTKLTVLG
B4: P5A-1B8 (antibody, human IgG1, kappa, V domains shown)
VH: EVQLVESGGGLIQPGGSLRLSCAASGFTVSSNYMSWVRQAPGKGLEWVSVIYPGGSTFYADSVKGRFTISRDNSKNTLYLQMNSLRAEDTAVYYCARETLAFDYWGQGTLVTVSS
VL: DIQLTQSPSFLSASVGDRVTITCRASQGISSYLAWYQQKPGKAPKLLIYAASTLQSGVPSRFSGSGSGTEFTLTISSLQPEDFATYYCQQLNSYPPAFGGGTKVEIKR
B5: P5A-2G9 (antibody, human IgG1, lambda, V domains shown)
VH: QVQLVESGGGVVQPGRSLRLSCAASGFTFSSYGMHWVRQAPGKGLEWVAVIWYDGSNKYYADSVKGRFTISRDNSKNTLYLQMNSLRAEDTAVYYCARWFHTGGYFDYWGQGTLVTVSS
VL: QPVLTQPPSSSASPGESARLTCTLPSDINVSSYNIYWYQQKPGSPPRYLLYYYSDSDKGQGSGVPSRFSGSKDASANTGILLISGLQSEDEADYYCMIWPSNALYVFGTGTKVTVLG
B6: P4A-1H6 (antibody, human IgG1, kappa, V domains shown)
VH: QVQLVESGGGVVQPGRSLRLSCAASGFTFSSYGMHWVRQSPGKGLEWVAVISDDGSNQYYADSVKGRFTISRDNSKNTLYLQMNSLRVEDTAVYYCAKRGGYCSTTSCLLRWVYFDFWGQGTLATVSS
VL: DIQMTQSPSSLSASVGDRVTITCRASQSISSYLHWYQQKPGKAPNLLIYAASSLQSGVPSRFSGSGSGTDFTLTISSLQPEDFATYYCQQSYNTPTFGPGTKVDIKR
B7: P22A-1D1 (antibody, human IgG1, kappa, V domains shown)
VH: EVQLVESGGGLIQPGGSLRLSCAASGFTVSSNYMSWVRQAPGKGLEWVSVIYSGGSTYYADSVKGRFTISRDNSKNTLYLQMNSLRAEDTAVYYCARDRDYYGMDVWGQGTTVTVSS
VL: DIQLTQSPSFLSASVGDRVTITCRASQGISSYLAWYQQKPGKAPKLLIYAASTLQSGVPSRFSGSGSGTEFTLTISSLQPEDFATYYCLHLNSYRTFGLGTKVEIKR
B8: P5A-1D1 (antibody, V domains shown)
VH: B7 VH with F27L, R99L, D100Y, S117T
VL: B7 VL with E70D, L89Q, H90Q, R95P, L99Q, K102R, V103L
B9: P5A-3A1 (antibody, V domains shown)
VH: B7 VH with R99Y, D100G, Y101D, Y102F, G103Y, M104F, V106Y, T112L
VL: not shown
B10: P5A-3C12 (antibody, human IgG1, kappa, V domains shown)
VH: QITLKESGPTLVKPTQTLTLTCTFSGFSLSTSGVGVGWIRQPPGKALEWLALIYWDDDKRYSPSLKSRLTITKDTSKNQVVLTMTNMDPVDTATYYCAHSLFLTVGYSSSWSPFDYWGQGTLVTVSS
VL: not shown
B11: P5A-2G7 (antibody, human IgG1, lambda, V domains shown)
VH: QVQLQESGPGLVKPSETLSLTCTVSGDSVSSGSYYWSWIRQPPGKGLEWIGYIYYSGSTNYNPSLKSRVTISVDTSKNQFSLKLSSVTAADTAVYYCARERCYYGSGRAPRCVWFDPWGQGTLVTVSS
VL: B3 VL with A66G, F93Y, T97S, V99L
B12: P5A-1D2 (antibody, human IgG1, lambda, V domains shown)
VH: EVQLVESGGGLIQPGGSLRLSCAASGFIVSSNYMSWVRQAPGKGLEWVSIIYSGGSTYYADSVKGRFTISRDNSNNTLYLQMNSLRAEDTAVYYCARALQVGATSDYFDYWGQGTLVTVSS
VL: QSVLTQPPSVSGAPGQRVTISCTGSSSNIGAGYDVHWYQQLPGTAPKLLIYGNSNRPSGVPDRFSGSKSGTSASLAITGLQAEDETDYYCQSCDSSLSVVVFGGGTKLTVLG
B13: P5A-1C8 (antibody, human IgG1, kappa, V domains shown)
VH: QVQLVQSGAEVKKPGASVKVSCKASGYTFTSYYMHWVRQAPGQGLEWMGIINPSGGSTSYAQKFQGRVTMTRDTSTSTVYMELSSLRSEDTAVYYCARSARDYYDSSGYYYRAEYFQHWGQGTLVTVSS
VL: DIQMTQSPSSLSASVGDRVTITCQASQDISNYLNWYQQKPGKAPKLLIYDASNLETGVPSRFSGSGSGTDFTFTISSLQPEDIATYYCQQYDNLPSITFGQGTRLEIKR
B14: P5A-3C8 (antibody, human IgG1, kappa, V domains shown)
VH: B7 VH with V50F, R99L, D100Q, Y101E, Y102H
VL: DIQLTQSPSSLSASVGDRVTITCRASQGISSYLAWYQQKPGKAPKLLIYAASTLQSGVPSRFSGSGSGTDFTLTISSLQPEDFATYYCQHLNSYPPGYTFGQGTKLEIKR
B15: P2C-1C10 (antibody, V domains shown)
VH: QVQLVQSGAEVKKPGSSVKVSCKASGGTFSSYAIIWVRQAPGQGLEWMGGIIPIFGTANYAQKFQGRVTITADESTSTAYMELSSLRSEDTAVYYCARVVTGYYFDYWGQGTLVTVSS
VL: EIVLTQSPATLSLSPGERATLSCRASQSVSSYLAWYQQKPGQAPRLLIYDASNRATGIPARFSGSGSGTDFTLTISSLEPEDFAVYYCQQRSNWPSFGQGTKLEIKR
B16: P2C-1C8 (antibody, V domains shown)
VH: QVQLVESGGGVVQPGRSLRLSCAASGFTFRSYGMHWVRQAPGKGLEWVAVIWYDGSNKYYADSVKGRFTISRDNSKNTLYLQMNSLRAEDTAVYYCARDIEIVVVNIDYWGQGTLVTVSS
VL: not shown
B17: P2C-1D5 (antibody, V domains shown)
VH: not shown
VL: SYVLTQPPSVSVAPGKTARITCGGNNIGSKSVHWYQQKPGQAPVLVIYYDSDRPSGIPERFSGSNSGNTATLTISRVEAGDEADYYCQVWDSSSDHHVFGTGTKVTVLG
B18: P5A-2G7 (antibody, human IgG1, lambda, V domains shown)
VH: B11 VH
VL: B3 VL with A66G, F93Y, T97S, V99L
B19: P5A-2G9 (antibody, human IgG1, lambda, V domains shown)
VH: B5 VH
VL: B5 VL
B20: P5A-1D2 (antibody, human IgG1, lambda, V domains shown)
VH: B12 VH
VL: B12 VL

biological target: T1, full length spike (S) protein of SARS-CoV-2 (SARS-CoV-2, UniProt P0DTC2 14-1273); test: cell-based or functional assay

| Binder | IC50, Pesudovirus neutralization | IC80, Pesudovirus neutralization | IC90, Pesudovirus neutralization |
| --- | --- | --- | --- |
| B1 | 0.234 µg/mL | 1.27 µg/mL | 2.77 µg/mL |
| B2 | – | – | 4.2 µg/mL |
| B3 | 5.72 µg/mL | 28.9 µg/mL | 43.8 µg/mL |
| B4 | – | 0.0509 µg/mL | 0.137 µg/mL |
| B5 | 0.0158 µg/mL | 0.147 µg/mL | 0.498 µg/mL |
| B6 | – | – | 2.21 µg/mL |
| B7 | – | – | 0.399 µg/mL |
| B8 | – | – | 0.232 µg/mL |
| B9 | – | – | 7.2 µg/mL |
| B10 | – | – | 0.955 µg/mL |

biological target: T1, full length spike (S) protein of …; test: cell-based or functional assay; remark: another data set of the same source

| Binder | IC50, pseudovirus neutralization |
| --- | --- |
| B11 | 0.016 µg/mL |
| B12 | 0.035 µg/mL |
| B13 | 0.434 µg/mL |
| B14 | 0.024 µg/mL |

biological target: T1, full length spike (S) protein of …; test: cell-based or functional assay; remark: another data set of the same source

| Binder | IC50, pseudovirus neutralization | Neutralizing activity (%) Mean at 0.0228624 µg/ml | Neutralizing activity (%) Mean at 0.0685871 µg/ml | Neutralizing activity (%) Mean at 0.2057613 µg/ml | Neutralizing activity (%) Mean at 0.6172839 µg/ml | Neutralizing activity (%) Mean at 1.851852 µg/ml | Neutralizing activity (%) Mean at 5.555555 µg/ml | Neutralizing activity (%) Mean at 16.66667 µg/ml | Neutralizing activity (%) Mean at 50 µg/ml |
| --- | --- | --- | --- | --- | --- | --- | --- | --- | --- |
| B15 | 2.62 µg/mL | -2.34% | 7.78% | 13.4% | 5.92% | 38.5% | 88.9% | 99.9% | 100% |
| B16 | – | -7.15% | 2.8% | 4.92% | 10.1% | 8.39% | 23.3% | 34.7% | 59.2% |
| B17 | 10.7 µg/mL | 4.24% | 5.65% | 8.66% | 12.4% | 16.1% | 33.6% | 64.9% | 90.2% |

biological target: full length S protein of SARS-CoV-2 (on pseudovirus) (SARS-CoV-2, UniProt P0DTC2 14-1273); test: cell-based or functional assay

| Binder | Pseudovirus IC50 | Pseudovirus IC80 |
| --- | --- | --- |
| B18 | 0.0044 µg/mL | 0.0287 µg/mL |
| B19 | 0.0158 µg/mL | 0.147 µg/mL |
| B20 | 0.0186 µg/mL | 0.102 µg/mL |
